B1: PL18 (VHH)
VHH: EVQLVESGGGLVQAGGSLRLSCAASGRTFNIYSMAWFRQAPGKEREFVVRINWNRGTTYYADSVKGRFTISRDNAKNTVYLQMSNLKPEDTAVYYCAARGSPSTIGAFTSASHYDYWGQGTQVTVSS
notes: not shown: C-terminal His-tag
B2: PL11 (VHH)
VHH: QVQLVESGGGLVQAGGSLRLSCAASGRTFNTYDMGWFRRAPGKEREFVAGIDWYTTNTYYADSVKGRFTISRDNAKNTVYLQMRSLKPEDTAVYYCAAGIRSTATITGQADYWGQGAQVTVSS
notes: not shown: C-terminal His-tag
B3: PL17 (VHH)
VHH: B2 VHH with A40T, I51M, Y54N, T56I, T105I, A117T
notes: not shown: C-terminal His-tag
B4: PL2 (VHH)
VHH: QVQLVESGGGLVQAGGSLRLSCAVSGLTLSRYTMAWFRQAPGKEREFVAAIIRNSVSTFHEESVKGRFTISRDNVKNMMYLQMNTLKPEDTAVYYCATNVGPTGGFSLQSVQRYDAWGQGTQVTVSS
notes: not shown: C-terminal His-tag
B5: PL14 (VHH)
VHH: EVQLVESGGGLVQAGGSLRLSCAASGSTSGIYDMGWYRQAPGKLREVVGIITSGGTTNYADFAKGRFTISRDNAKNMMYLQMNSLKPEDTAVYYCNIRTRLIIWGQGTQVTVSS
notes: not shown: C-terminal His-tag
B6: PL16 (VHH)
VHH: QVQLVESGGGLVQAGGSLRLSCAFSGGTFLTYSLGWFRQGPGKEREFVASINWSGYMTSYVDSVKGRFTISRDNAKNTVYLQMNSLKPEDTALYYCAAARTAIAAKRSSEFDYWGQGAQVTVSS
notes: not shown: C-terminal His-tag
B7: CD16F1 (VHH)
VHH: EVQLVESGGGLVQPGGSLRLSCAVSGSLFSARVMGWYRQAPGKQRELVAAITSGVRTDYADSVKGRFTISRDNAKRAVYLQMNSLKPEDTAVYYCNVNLYNTGNYWGQGTQVTVSS
notes: not shown: C-terminal His-tag
B8: CD16E11 (VHH)
VHH: QVQLVESGGGLVQPGGSLTLSCRASGFTFSNHAMSWVRQAPGKGLEWVSEISFNGHATRYADSLKGRFTISRDNAKNTLYLQMNTLKPEDTAVYYCRKGWNATPQIGERGRGTQVTVSS
notes: not shown: C-terminal His-tag
B9: 33-13 (VHH)
VHH: QVQLVESGGGLVQAGGSLRLSCAASGSISSINSMNWYRQAPGKQREKVAGINSSGDTNYVDSVKGRFTISRDNAERTTYLQMNNLKPEDTGLYYCNADPRPWPNDVAFGSWGQGTRVTVSS
notes: not shown: C-terminal His-tag
B10: 1518-HS5-GS15 (bispecific antibody)
chain: EVQLVESGGGLVQPGGSLRLSCAVSGSLFSARVMGWYRQAPGKQRELVAAITSGVRTDYADSVKGRFTISRDNAKRAVYLQMNSLKPEDTAVYYCNVNLYNTGNYWGQGTQVTVSSGGGGSGGGSEVQLLESGGGLVQPGGSLRLSCAASGRTFTTHAMGWFRQAPGKEREFVSAINWGGRTTYYADSVKGRFIISRDTGANTLYLQMNSLRAEDTAVYYCASNLDTYNVRAGTTNSWGQGTQVTVSSGGGGSGGGGSGGGGSEVQLVESGGGLVQPGGSLRLSCAASGGGRTFSNYALGWFRQAPGKEREFVAAISRSGGNINYADSVKGRFTISRDNFKNTVYLQMSSLRAEDTAVYYCAAHYLLLPSYISTSTNMYNYWGQGTQVTVSSAAAQVQLVESGGGLVQPGGSLRLSCAASGGGRTFSNYALGWFRQAPGKEREFVAAISRSGGNINYADSVKGRFTISRDNAKNTVYLQMSSLRAEDTAVYYCAAHYLLLPSYISTSTNMYNYWGQGTQVTVSSGGGGSGGGSEVQLVESGGGLVQPGGSLRLSCAASGGTFLTYSMSWVRQAPGKEREFVSSINWSGYMTYYADSVKGRFTISRDNSKNTLYLQMNSLRAEDTAVYYCAAARTAIAAKRSSEFDYWGQGTQVTVSSAAAEVQLVESGGGLVQPGGSLRLSCAASGGTFLTYSMSWVRQAPGKEREFVSSINWSGYMTYYADSVKGRFTISRDNSKNTLYLQMNSLRAEDTAVYYCAAARTAIAAKRSSEFDYWGQGTQVTVSS
notes: Multi-specific single chain antibody with the 15-residue linker (G4S)3 between the anti-HSA and anti-CD47 domains
B11: HS12 (VHH)
VHH: QVQLVESGGGSVQAGGSLRLSCAASGRTFISFSMGWFRQAPGKEREFVASITNSGSGILYGDSVKGRFTISRDNAKNTMYLQMNSLKPEDTAVYYCAAGTGAGRYRYASMFDYWGQGTQVTVSS
notes: not shown: C-terminal His-tag
B12: HS5 (VHH)
VHH: EVQLVESGGGLVQAGGSLRLSCAASGRTFTTHAMGWFRQAPGKEREFVATINWGGRTTYYADSVKGRFIISRDTGANTVYLQMNSLKPEDTAVYYCASNLDTYNVRAGTTNSWGQGTQVTVSS
notes: not shown: C-terminal His-tag
B13: HS10 (VHH)
VHH: EVQLVESGGGLVQPGGSLRLSCAASGSTDSAYRMGWFRQAPGKEREFVSAINWSDGRTYYADSVKGRFTISRDNSKNTLYLQMNSLRAEDTAVYYCAADPDSRLYYTVPQNYDYWGQGTLVTVSS
notes: not shown: C-terminal His-tag
B14: HS6 (VHH)
VHH: EVQLVESGGGLVQAGGSLRLSCAASGRIFHTYAVGWFRQAPGKERESVVIINWSSDHTYVAQSVKGRFTISRDRAKNTFYLQMNSLKPEDTAVYYCAVRRRLYGLRESDFDSWGQGTQVTVSS
notes: not shown: C-terminal His-tag

Residue numbers refer to the chain shown, from its start. Names may count otherwise.

T2 sequence (P08637 17-208 limits assumed): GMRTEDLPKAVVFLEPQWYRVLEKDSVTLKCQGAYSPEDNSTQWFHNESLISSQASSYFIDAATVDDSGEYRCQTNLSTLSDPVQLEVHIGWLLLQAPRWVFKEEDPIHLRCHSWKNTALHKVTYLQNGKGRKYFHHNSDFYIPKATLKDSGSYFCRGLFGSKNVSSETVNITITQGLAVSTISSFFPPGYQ
Human CD33, sequence (P20138 18-259 limits assumed): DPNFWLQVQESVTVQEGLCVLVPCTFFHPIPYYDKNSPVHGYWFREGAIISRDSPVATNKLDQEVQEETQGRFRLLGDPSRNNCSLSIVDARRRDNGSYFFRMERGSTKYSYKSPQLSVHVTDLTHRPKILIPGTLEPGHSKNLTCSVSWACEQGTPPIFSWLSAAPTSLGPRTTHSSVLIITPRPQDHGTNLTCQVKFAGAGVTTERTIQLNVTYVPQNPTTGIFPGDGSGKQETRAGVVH

The target of one experiment is T1, Human PD-L1 antigen (human, UniProt Q9NZQ7 19-238).
T1 construct: also called PD-L1 protein
T1 sequence (Q9NZQ7 19-238 limits assumed): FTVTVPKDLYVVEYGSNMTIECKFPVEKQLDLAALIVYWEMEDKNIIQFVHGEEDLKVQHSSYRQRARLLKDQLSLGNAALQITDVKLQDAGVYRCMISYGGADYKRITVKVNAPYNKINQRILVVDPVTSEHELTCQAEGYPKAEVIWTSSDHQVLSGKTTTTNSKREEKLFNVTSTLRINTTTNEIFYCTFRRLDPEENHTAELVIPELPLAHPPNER
In words: BLI (Octet), His-tagged VHH on anti-penta-His tips, soluble human PD-L1.
As for B1, the dissociation constant (Kd) was found to be 2.67 nM, the koff is 0.000114 s⁻¹ and the kon stood at 42700 M⁻¹ s⁻¹.
As for B2, the affinity, expressed as Kd, was 19 nM; the koff worked out at 0.000522 s⁻¹; the kon was 27500 M⁻¹ s⁻¹.
Molecule B3 displayed a Kd of 0.0114 nM, a koff of 1.09e-06 s⁻¹ and a kon of 87000 M⁻¹ s⁻¹.
The like results for B4 were, in that order, 630 nM, 0.021 s⁻¹ and 33300 M⁻¹ s⁻¹.
Molecule B5 displayed a Kd of 0.0177 nM, a koff of 1.1e-06 s⁻¹ and a kon of 62100 M⁻¹ s⁻¹.
The like results for B6 were, in that order, 0.0271 nM, 2.98e-06 s⁻¹ and 110000 M⁻¹ s⁻¹.

Another experiment concerns the target T2, Human CD16A (human, UniProt P08637 17-208, limits assumed).
T2 construct: also called FcγRIIIa
Nature of the experiment: BLI (Octet) as in Example 1, His-tagged VHH, human CD16A.
In the case of B7, binding was put at a Kd of 4.68 nM, the koff came to 0.000109 s⁻¹ and the kon was 23300 M⁻¹ s⁻¹.
The matching figures for B8: 3.02 nM, 6e-05 s⁻¹ and 19900 M⁻¹ s⁻¹.

The next experiment has as its target Human CD33 (human, UniProt P20138 18-259). Nature of the experiment: BLI (Octet) as in Example 1, His-tagged VHH, human CD33.
In turn, B9 gave a Kd of 0.409 nM, a koff of 0.0005 s⁻¹ and a kon of 1e+06 M⁻¹ s⁻¹.

In the next experiment the target is T3, CD47 natively expressed on tumor cell surface (Jurkat, HL60 cells) (human, UniProt Q08722 19-323).
T3 construct: whole, on cells; also called CD47 on the HL60 cell surface; CD47 on the Jurkat cell surface
In words: flow cytometry on HL60 cells (express CD47 but not PD-L1). On the technique in general: Flow cytometry measures light scatter and fluorescence of single cells or particles in a stream.
As to B10, the EC50 amounted to 8.4 nM.

The target of the next experiment is T4, Human serum albumin (human, UniProt P02768 25-609).
T4 construct: also called HSA
In words: BLI (Octet) as in Example 1, His-tagged VHH, HSA. For orientation: Biolayer interferometry detects binding as a change in optical thickness at a sensor tip.
Turning to B11, binding was put at a Kd of 0.568 nM, the koff was found to be 0.000583 s⁻¹ and the kon stood at 1.03e+06 M⁻¹ s⁻¹.
B12 showed a Kd of 0.946 nM, a koff of 0.000765 s⁻¹ and a kon of 809000 M⁻¹ s⁻¹.
The matching figures for B13: 2.89 nM, 8.01e-05 s⁻¹ and 27700 M⁻¹ s⁻¹.
Molecule B14 returned a Kd of 0.498 nM, a koff of 0.000829 s⁻¹ and a kon of 1.67e+06 M⁻¹ s⁻¹.

The Kd is the constant that tells how readily two partners part at equilibrium. The low end stands for tighter binding, the high end for weaker binding. Usually koff stands for the first-order rate constant of dissociation. The kon is the second-order rate constant of association. Broadly, the EC50 is the midpoint of the concentration-response curve.

The values are drawn from patent publication US12723105 (BEIJING STARMAB BIOMED TECHNOLOGY, dated 2026).
